Assay results as given in the DeepSol protein solubility set.

Assay: soluble on expression in E. coli; label from the status in PepcDB or PDB records
In the case of “DLYRRQQGELKQTKLQNSILLSVSHDLRTPLATIIGTLTTLNEYMPKLNDLERKELLDSATSESHRLHQYIENLLQATKLQHGTLKITKKDEPIANIVRDAVSRLPNYTEKVSMNMDDSVGYLSVSRSL”, the “soluble on expression in E. coli” value is reported as “not soluble”.
For “DMIVRQAGPADAAAMSAVLHPILTGWNSARSGDAETVLTRYIDDPDRLSCAVACEGERILGFQSLKLARAGNVYDLPAGWGIIGTYVAGDAGRRGIGRALFTETLAAARRAGLAHIDATIGADNAQGLPYYSALGFQTWRELDG”, the “soluble on expression in E. coli” value was “not soluble”.
For “DRLGQPPSGYGVLLSVHEDKTVDVFTSGRKMRLTCSPNIDTDTLALGQTVRLNEALTIVEAGTYEQVGEISTLREVLDDGLRALVVGHADEERIVWLAAPLAAVFADPEADIIAYDADSPTRKLRPGDSLLVDTKAGYAFERIPKAEVEDLVL”, the “soluble on expression in E. coli” value was “soluble”.
For “DSPPSESLPSADSNRTHIVNGVGAFQSKVHPSIVTVLYFPGPVTSAISSDDQSFETSIVGHSVVIRPAPNVTAKTVGNINITTRAMNVSLTMRIAERPEDAATQLVFRALSEVEAFETRVAAEVERVRQEVEHEYERRHRNLEREVTHATEQAIARRMLMRHEGREFGAIARNEHNIIARVTRAQWIGPELYLYFEIQNRDSTPYHLAHVRLLGPTGESDHVDHLEFAGAGDVIDGSLGTVLSGQRGRGIVHVRDAARFAGKPFTFLVSEARERRAVSIGGITW”, the “soluble on expression in E. coli” value was “not soluble”.
For “DVETCRDERCYRLWINSLGIDSYVNNVFEDVRNGWILLEVLDKVSPSSVNWKHASKPPIKMPFRKVENCNQVIKIGKQLKFSLVNVAGNDIVQGNKKLILGLLWQLMRFHMLQLLKSLRSEMTDADILSWANRKVRTMGRKLQIESFKDKSLSSGLFFLNLLWAVEPRVVNWNLVTKGETDDEKRLNATYIVSVARKLGCSVFLLPEDIVEVNQKMILILTASIMYWSLQR”, the “soluble on expression in E. coli” value was “soluble”.
For “DVIELTDDSFDKNVLDSEDVWMVEFYAPWCGHCKNLEPEWAAAASEVKEQTKGKVKLAAVDATVNQVLASRYGIRGFPTIKIFQKGESPVDYDGGRTRSDIVSRALDLFSDNAPPPELLE”, the “soluble on expression in E. coli” value was “soluble”.
For “DVQLQASGGGLVQPGGSLRVSCAASGFTFSSYHMAWVRQAPGKGLEWVSTINPGDGSTYYADSVKGRFTISRDNAKNTLYLQMNSLKSEDTAVYYCAKYSGGALDAWGQGTQVTVSSQSEQKLISEEDLNHHHHH”, the “soluble on expression in E. coli” value was “soluble”.
In the case of “EALSSKVQQLERSIGLKDLAMADLEQKVLEMEASTYDGVFIWKISDFPRKRQEAVAGRIPAIFSPAFYTSRYGYKMCLRIYLNGDGTGRGTHLSLFFVVMKGPNDALLRWPFNQKVTLMLLDQNNREHVIDAFRPDVTSSSFQRPVNDMNIASGCPLFCPVSKMEAKNSYVRDDAIFIKAIVDLTGL”, the “soluble on expression in E. coli” value is reported as “soluble”.
For “EAQTETCTVAPRERQNCGFPGVTPSQCANKGCCFDDTVRGVPWCFYPNTIDVPPEEESEF”, the “soluble on expression in E. coli” value was “soluble”.
In the case of “EDFFNAKVQEQIERYQRYHNTAYNLEPDIKFSPGGLRDLHLLYWVALRHSGALTLEAILQSGFIYPQEYQQLQESRAFLFKVRFALHLILKRYDNRLLFDRQIKVSELLGFRGEGNPAVEKMMKCFFQALHRISLISNLLIQHYRENVLSSNQDTVIDQLDDDFQLINQSLCLRNSFVFQEKPARILDLFFYLTQYEHVNIHSDTLRQL”, the “soluble on expression in E. coli” value is reported as “not soluble”.
For “EDHEGRHMMAVLPANNKISLSRLNDEFNATFHLVKERMVYRLFTDCEHGAIPPIGSPYHMSTVCDERLANLEHVYLEAGDHETLIKLDRKAFKDLMNDCKYLRFSSEVLH”, the “soluble on expression in E. coli” value was “not soluble”.
With “EDRPSKAPSFWYKIDPSHTQGYRTVQLVWKTLPPFEANGKILDYEVTLTRWKSHLQNYTVNATKLTVNLTNDRYLATLTVRNLVGKSDAAVLTIPACDFQATHPVMDLKAFPKDNMLWVEWTTPRESVKKYILEWCVLSDKAPCITDWQQEDGTVHRTYLRGNLAESKCYLITVTPVYADGPGSPESIKAYLKQAPPSKGPTVRTKKVGKNEAVLEWDQLPVDVQNGFIRNYTIFYRTIIGNETAVNVDSSHTEYTLSSLTSDTLYMVRMAAYTDEGGKDGPEFTFTTPK” the “soluble on expression in E. coli” value was “soluble”.
For “EETAKEVMTSRLDMVDLEINTPYSDVLKCIVENAYSRIPVYAESRDNIKGILYIKDLLPHLGKGDNFRWQTLVRPAYFVPETKMIDDLLRDFQANKIHIAIVVDEFGGTSGIVTMEDIIEEIVGEINDEYDD”, the “soluble on expression in E. coli” value was “soluble”.
For “EFIGCNDHTVVIEDDGRRWVTREPALVYFNKHTWFNVVAMIRDSGVSYYCNIASPFVLDREALKYVDYDLDVKVFPNGERRLLDMDEFEQFSKKWRYP”, the “soluble on expression in E. coli” value was “not soluble”.
In the case of “EGIRQGVLKTAQNGNGNLIYLTGGMATVDHGAFHQGKFLTLKMDDSEVVRALPDVKSVAPTAKWKERITVGDRSSWQEPLAVTSEFQSMTNLVPMAGGRWLNPLDQKETRKVVVLGYELAADLFNPNEDFSWFATVTLQVNPVGKKVKIGNEEFTVVGVLEKNSAQIELGDLINYSSFVPLATWKRFHVNGEIGGINVQPQADVDREALAKTIRQVIARKHGASVNDEQVVQVDDMFLKQKSMQQFLIGLQS”, the “soluble on expression in E. coli” value is reported as “not soluble”.
With “EGLNICKKIMVISDKNDAISEFIIKELERGCTIIDGKGGYTGKDTYILYTVLNRKEFIRLRIFIKETDPNAFITISDAKEVLGEGFKEI” the “soluble on expression in E. coli” value was “not soluble”.
With “EGRYIYMNPAHREMFGIATEDEILGRSWRELYSGDVADHIATTALPALLSTGGWRGELIGRRRDGSDLPQEVSLTLKADGGIICISRD” the “soluble on expression in E. coli” value was “not soluble”.
With “EKPAMEYHWEEVFPELDSKNPMDRREMEQRREYLREKAKEAAAYAERPSSVRLASASLGTQPQEQPKPATPFQSQLTGILPEEQIQRLSEGIDKLAEAGEQLARIGRTAAAMTESYEQMQADQEGLRLNSQSYIQQMESLSRNISGLNTIYEIQLKGISSQIDTIDRINRGLAHIRDMYDNSVIDSSSFRNENERMARQLTQLNEVYARLLQALTTNVGLPGMPGNFGASNPSSSGSSPL” the “soluble on expression in E. coli” value was “not soluble”.
For “EKVKNSDYTFEVDFEGPFFPIVEGVNSFGKRMYRVAPQVLRVPLEKPETRVISDIKNGEVLVYVFIQSPEGVVPVSLNLEGKRFRFFNLEGKWICVFKSFLEDGAHELEITFNGPYGYTFSLKKEIYVIKRVAVPMRGEDGAFDYTVFAEHVVKRGETLWSIANQYGVRVGDIVLINRLEDPDRIVAGQVLKIGRVYFRENPVTIVVNLFSSKLALYYDGVLLKVYPVALGRSDATPPGRYWVLRKEIDPALYWFGEYISPRTPLNGLGTRYLQLSDPTYAIHGTSKPWEIGKRISHGCIRMFNRDVEEIDAFAGVGTEVVVVKEDKEFPERIY”, the “soluble on expression in E. coli” value was “not soluble”.
With “ELEKSEELYKSLLEDASDAIVVVDENEIVKMVNKMAEEFFGHSSEEVVGLPLSRMLVLVKTHNIPIVYNFFQEVGKGRHVAEEIRFSRVEGEQVVGLIHANTVTIGSERLIQAIIRDVT” the “soluble on expression in E. coli” value was “not soluble”.
For “ELIEPEPRPLIITPSVIELPILRRRDIYMEVANVSIGRAADALARHFDVFVQLPLPNVNIFEVSELHMALRDLASHDNVSGVCQGFCGEGIAGEALVILSDSSVSDLKKLMKVPADSEELEELELLMDISNILVGSFLNGLGEQSEVRFFQSPPVLLGQHISIDSIIESTTGAFKRTMTFEVSYNIEGTSIRCDLLFMFVDESLPLLDNKLAYLMEEF”, the “soluble on expression in E. coli” value was “not soluble”.
For “ELSYRLLDQIYINPAVILKREEQYIKDFQSYVTEQKLSMNDRKKIKEFTKTDWTIVMALYQENDIIFSSDSRFIVPLPADEYGETIKDTSEASGVFNVTFTDGAVQAALVYTGYENYQS”, the “soluble on expression in E. coli” value was “soluble”.
In the case of “EMEEREIINNVFEFGDMQAKNAMVQRIDMVAIDMEDSYDEIIQVFKTEKLSRMPVYEETIDDIVGILNIKDIIFLSDEEIESFDIKNYMREPFFTYEFKKITQLLEEMKLEKSQMAIVVDEYGGTSGLLTIEDLVEVIVGDIE”, the “soluble on expression in E. coli” value is reported as “soluble”.
In the case of “EMEPEEERIRYSQRLRGTMRRRYEDDGISDDEIEGKRTFDLEEKLHTNKYNANFVTFMEGKDFNVEYIQRGGLRDPLIFKNSDGLGIKMPDPDFTVNDVKMCVGSRRMVDVMDVNTQKGIEMTMAQWTRYYETPEEEREKLYNVISLEFSHTRLENMVQRPSTVDFIDWVDNMWPRHLKESQTESTNAILEMQYPKVQKYCLMSVRGCYTDFHVDFGGTSVWYHIHQGGKVFWLIPPTAHNLELYENWLLSGKQGDIFLGDRVSDCQRIELKQGYTFVIPSGWIHAVYTPTDTLVFGGNFLHSFNIPMQLKIYNIEDRTRVPNKFRYPFYYEMCWYVLERYVYCITNRSHLTKEFQKESLSMDLELNGLESGNGDEEAVDREPRRLSSRRSVLTSPVANGVNLDYDGLGKTCRSLPSLKKTLAGDSSSDCSRGSHNGQVWDPQCAPRKDRQVHLTHFELEGLRCLVDKLESLPLHKKCVPTGIEDEDALIADVKILLEELANSDPKLALTGVPIVQWPKRDKLKFPTRPKVRVPTIPITKPHTMKPAPRLTPVRPAAASPIVSGARRRRVRCRKCKACVQGECGVCHYCRDMKKFGGPGRMKQSCVLRQCLAPRLPHSVTCSLCGEVDQNEETQDFEKKLMECCICNEIVHPGCLQMDGEGLLNEELPNCWECPKCYQEDSSEKAQKRKMEESDEEAVQAKVLRPLRSCDEPLTPPPHSPTSMLQLIHDPVSPRGMVTRSSPGAGPSDHHSASRDERFKRRQLLRLQATERTMVREKENNPSGKKELSEVEKAKIRGSYLTVTLQRPTKELHGTSIVPKLQAITASSANLRHSPRVLVQHCPARTPQRGDEEGLGGEEEEEEEEEEEDDSAEEGGAARLNGRGSWAQDGDESWMQREVWMSVFRYLSRRELCECMRVCKTWYKWCCDKRLWTKIDLSRCKAIVPQALSGIIKRQPVSLDLSWTNISKKQLTWLVNRLPGLKDLLLAGCSWSAVSALSTSSCPLLRTLDLRWAVGIKDPQIRDLLTPPADKPGQDNRSKLRNMTDFRLAGLDITDATLRLIIRHMPLLSRLDLSHCSHLTDQSSNLLTAVGSSTRYSLTELNMAGCNKLTDQTLIYLRRIANVTLIDLRGCKQITRKACEHFISDLSINSLYCLSDEKLIQKIS”, the “soluble on expression in E. coli” value is reported as “soluble”.
In the case of “ENAIIGVNDHTLVTESDGRRWVTREPAIVYFHKKYWFNIIAMIRDNGTSYYCNMASPYYLDEEALKYIDYDLDVKIFTDGEKRLLDVEEYERHKRKMNYS”, the “soluble on expression in E. coli” value is reported as “not soluble”.
For “EPQVRESLGRDVMVVVDLSGSMAEPDFTSRTGEKISRLDAAKEVLTEFVQSRKGDRLGLVLFGDAAFVQTPFTADQKVWLELLNQTDVAMAGQSTHLGDAIGLAIKVFEQSDKSRGALEQDQNREKVAIVLTDGNDTGSFVEPIDAAKVAKAKGVRVHVIAMGDPETIGETALDMDTIHRIAKESGGEAFEALNRDELSAAYDEIGKLEPQLYESTTYRPKQSLHH”, the “soluble on expression in E. coli” value was “not soluble”.
With “ESLDEVVVVGMGTQRKVSVVGAVTSVNPAAISAPSTSVANMLGGVVPGIIAVDRSGEPGQDVSEFWIRGISTFGANQSALVLIDGIEGNLNDLDPSDIESFSILKDASATAVYGVRGANGVVLVTTRSGQEGR” the “soluble on expression in E. coli” value was “not soluble”.
With “EYGYEDLRESSNSLLNHQLSEIDQARLYSCLDHMREVLGDAVPDDILTEAILKHKFDVQKALSVVLEQDG” the “soluble on expression in E. coli” value was “soluble”.
For “FCLTLRRRYTMGHHHHHHHHHHSSGHIEGRHMKLEQTLTLSPNLIGFNSNEGEKLLLTSRSREDFFPLSMQFVTQVNQAYCGVASIIMVLNSLGINAPETAQYSPYRVFTQDNFFSNEKTKAVIAPEVVARQGMTLDELGRLIASYGVKVKVNHASDTNIEDFRKQVAENLKQDGNFVIVNYLRKEIGQERGGHISPLAAYNEQTDRFLIMDVSRYKYPPVWVKTTDLWKAMNTVDSVSQKTRGFVFVSKTQDD”, the “soluble on expression in E. coli” value was “soluble”.
